Test results published in patent US9260500B2, “Peptide and use thereof” (Takeda Pharmaceutical Company Limited, priority 2009, dated 2016).
Starred links: 1 amine or outer side, 2 acyl side, 3 side chain; linkers in the order of their positions; H or OH if unused. Non-standard residues stand in square brackets, D forms with d. *: point of attachment. X4 = ((1S)-1-Carboxy-3-methylbutyl)carbamoyl, CC(C)C[C@H](NC(=O)*)C(=O)O; X3 = ((1S)-1-Carboxy-2-hydroxyethyl)carbamoyl, O=C(O)[C@H](CO)NC(=O)*; X7 = (tetrahydro-2H-pyran-4-yl)carbamoyl, O=C(NC1CCOCC1)*; (5-carboxypentyl)carbamoyl = O=C(O)CCCCCNC(=O)*; (2-Carboxyethyl)carbamoyl = O=C(O)CCNC(=O)*; Imidazole4carbonyl = O=C(c1cnc[nH]1)*; tBuAla = CC(C)(C)C[C@H](N)C(=O)O; 4Pal = N[C@@H](Cc1ccncc1)C(=O)O; dHyp = O=C(O)[C@H]1C[C@H](O)CN1; Cha = N[C@@H](CC1CCCCC1)C(=O)O; Suc = O=C(CCC(=O)[*:2])[*:1]; Iva = CC[C@](C)(N)C(=O)O; Nle = CCCC[C@H](N)C(=O)O; Aib = CC(C)(N)C(=O)O

How the values were obtained:
human Y2 receptor [1] = target: T1, human Y2 receptor (Homo sapiens, UniProt P49146); test: Receptor Binding Assay (RBA) for Human Y2, [125I]-PYY displacement on hY2R/CHO membrane fraction; details: IC50 of test compound/IC50 of PYY(3-36) (PYY(3-36) taken as 1)
T1 construct: expressed in transfected cells; membrane fraction
T1 sequence (P49146 1-381): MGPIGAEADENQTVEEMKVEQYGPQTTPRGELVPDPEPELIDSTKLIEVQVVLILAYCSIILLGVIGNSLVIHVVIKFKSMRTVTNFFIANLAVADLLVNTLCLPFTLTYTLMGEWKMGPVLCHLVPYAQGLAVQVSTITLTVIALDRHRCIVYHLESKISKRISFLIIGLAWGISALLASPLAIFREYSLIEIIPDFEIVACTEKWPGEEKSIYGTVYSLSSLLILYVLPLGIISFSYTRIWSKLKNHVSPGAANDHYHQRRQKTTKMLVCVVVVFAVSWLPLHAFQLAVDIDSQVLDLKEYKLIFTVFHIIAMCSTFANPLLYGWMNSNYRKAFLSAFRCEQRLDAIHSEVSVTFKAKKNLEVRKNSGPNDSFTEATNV
In short: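 hY2R stably expressed in CHO/dhfr− cells; membrane fraction prepared from cells disrupted in 10 mM NaHCO3, 5 mM EDTA buffer with protease inhibitors. Binding read as displacement of [125I]-PYY.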

human Y2 receptor [2] = target: T1, human Y2 receptor; test: Human Y2 Receptor G Protein Binding Assay (GBA), [35S]GTPγS; type: biochemical; details: EC50 of test compound/EC50 of PYY(3-36) (PYY3-36 taken as 1), hY2R/CHO membrane fraction
In short: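 Agonism measured as [35S]GTPγS binding, read by GF/C filtration and scintillation counting after 120 min at room temperature, using human Y2 membranes at 1 μg protein/mL in pH 7.4 Tris/MgCl2/NaCl/GDP buffer. Compound serially diluted 100 μM–1 nM; EC50 normalized to PYY(3-36) (ratio = compound/PYY).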

male C57EL/6J mice = test: 3-Days Continuous Subcutaneous Administration Test-1 (food intake suppressing activity); type: in vivo, mouse; details: 0.03 mg/kg/day, subcutaneous Alzet pump, food consumption over 3 days; relative to food intake suppression rate for PYY(3-36) (1 mg/kg/day) taken as 100%
In short: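 Male […] mice, 12-13 weeks, received compound at 0.03 mg/kg/day by subcutaneous osmotic pump (50% DMSO vehicle), housed singly with free food access. Food consumed over 3 days measured; suppression expressed relative to PYY(3-36) (1 mg/kg/day) set as 100%.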

Substance | RBA IC50 Ratio (human Y2 receptor [1]) | GBA EC50 Ratio (human Y2 receptor [2]) | food intake suppression rate (%) (male C57EL/6J mice)
(5-carboxypentyl)carbamoyl-[D-Pro24, Pya(4)26, Cha27,36, Aib28,31, Lys30]-PYY(23-36) ({(5-carboxypentyl)carbamoyl}-S[dP]R[4Pal][Cha][Aib]NK[Aib]TRQR[Cha]-NH2; SMILES C[C@@H](O)[C@H](NC(=O)C(C)(C)NC(=O)[C@H](CCCCN)NC(=O)[C@H](CC(N)=O)NC(=O)C(C)(C)NC(=O)[C@H](CC1CCCCC1)NC(=O)[C@H](Cc1ccncc1)NC(=O)[C@H](CCCNC(=N)N)NC(=O)[C@H]1CCCN1C(=O)[C@H](CO)NC(=O)NCCCCCC(=O)O)C(=O)N[C@@H](CCCNC(=N)N)C(=O)N[C@@H](CCC(N)=O)C(=O)N[C@@H](CCCNC(=N)N)C(=O)N[C@@H](CC1CCCCC1)C(N)=O) [compound No. 294] | 1.2 | 1.5 | 45%
Ac-[D-Hyp24, Iva25, Pya(4)26, Cha27,36, Aib28,31, Lys30]-PYY(23-36) (Ac-S[dHyp][Iva][4Pal][Cha][Aib]NK[Aib]TRQR[Cha]-NH2; SMILES CC[C@](C)(NC(=O)[C@H]1C[C@H](O)CN1C(=O)[C@H](CO)NC(C)=O)C(=O)N[C@@H](Cc1ccncc1)C(=O)N[C@@H](CC1CCCCC1)C(=O)NC(C)(C)C(=O)N[C@@H](CC(N)=O)C(=O)N[C@@H](CCCCN)C(=O)NC(C)(C)C(=O)N[C@H](C(=O)N[C@@H](CCCNC(=N)N)C(=O)N[C@@H](CCC(N)=O)C(=O)N[C@@H](CCCNC(=N)N)C(=O)N[C@@H](CC1CCCCC1)C(N)=O)[C@@H](C)O) [compound No. 297] | 1.5 | 1.4 | 45%
4-Imidazolecarbonyl-[D-Pro24, Nle25, Pya(4)26, Cha27,36, Aib28,31, Lys30]-PYY(23-36) (Imidazole4carbonyl-S[dP][Nle][4Pal][Cha][Aib]NK[Aib]TRQR[Cha]-NH2; SMILES CCCC[C@H](NC(=O)[C@H]1CCCN1C(=O)[C@H](CO)NC(=O)c1cnc[nH]1)C(=O)N[C@@H](Cc1ccncc1)C(=O)N[C@@H](CC1CCCCC1)C(=O)NC(C)(C)C(=O)N[C@@H](CC(N)=O)C(=O)N[C@@H](CCCCN)C(=O)NC(C)(C)C(=O)N[C@H](C(=O)N[C@@H](CCCNC(=N)N)C(=O)N[C@@H](CCC(N)=O)C(=O)N[C@@H](CCCNC(=N)N)C(=O)N[C@@H](CC1CCCCC1)C(N)=O)[C@@H](C)O) [compound No. 302] | 1.7 | 1.2 | 22%
3-Carboxypropionyl-[D-Hyp24, Iva25, Pya(4)26, Cha27,36, Leu(Me)28, Lys30, Aib31]-PYY(23-36) (Suc-S[dHyp][Iva][4Pal][Cha][tBuAla]NK[Aib]TRQR[Cha]-NH2; SMILES CC[C@](C)(NC(=O)[C@H]1C[C@H](O)CN1C(=O)[C@H](CO)NC(=O)CCC(=O)O)C(=O)N[C@@H](Cc1ccncc1)C(=O)N[C@@H](CC1CCCCC1)C(=O)N[C@@H](CC(C)(C)C)C(=O)N[C@@H](CC(N)=O)C(=O)N[C@@H](CCCCN)C(=O)NC(C)(C)C(=O)N[C@H](C(=O)N[C@@H](CCCNC(=N)N)C(=O)N[C@@H](CCC(N)=O)C(=O)N[C@@H](CCCNC(=N)N)C(=O)N[C@@H](CC1CCCCC1)C(N)=O)[C@@H](C)O) [compound No. 350] | 0.92 | 1.9 | 41%
(2-Carboxyethyl)carbamoyl-[D-Pro24, Pya(4)26, Cha27,36, Aib28,31, Lys30]-PYY(23-36) ({(2-Carboxyethyl)carbamoyl}-S[dP]R[4Pal][Cha][Aib]NK[Aib]TRQR[Cha]-NH2; SMILES C[C@@H](O)[C@H](NC(=O)C(C)(C)NC(=O)[C@H](CCCCN)NC(=O)[C@H](CC(N)=O)NC(=O)C(C)(C)NC(=O)[C@H](CC1CCCCC1)NC(=O)[C@H](Cc1ccncc1)NC(=O)[C@H](CCCNC(=N)N)NC(=O)[C@H]1CCCN1C(=O)[C@H](CO)NC(=O)NCCC(=O)O)C(=O)N[C@@H](CCCNC(=N)N)C(=O)N[C@@H](CCC(N)=O)C(=O)N[C@@H](CCCNC(=N)N)C(=O)N[C@@H](CC1CCCCC1)C(N)=O) [compound No. 326] | 1.3 | 0.94 | 57%
Ac-[Glu23, D-Pro24, Iva25, Pya(4)26, Cha27,36, Aib28,31, Lys30]-PYY(23-36) (Ac-E[dP][Iva][4Pal][Cha][Aib]NK[Aib]TRQR[Cha]-NH2; SMILES CC[C@](C)(NC(=O)[C@H]1CCCN1C(=O)[C@H](CCC(=O)O)NC(C)=O)C(=O)N[C@@H](Cc1ccncc1)C(=O)N[C@@H](CC1CCCCC1)C(=O)NC(C)(C)C(=O)N[C@@H](CC(N)=O)C(=O)N[C@@H](CCCCN)C(=O)NC(C)(C)C(=O)N[C@H](C(=O)N[C@@H](CCCNC(=N)N)C(=O)N[C@@H](CCC(N)=O)C(=O)N[C@@H](CCCNC(=N)N)C(=O)N[C@@H](CC1CCCCC1)C(N)=O)[C@@H](C)O) [compound No. 322] | 6.1 | 2.8 | 31%
[(1S)-1-Carboxy-3-methylbutyl]carbamoyl-[Glu23, D-Pro24, Pya(4)26, Cha27,36, Aib28,31, Lys30]-PYY(23-36) (X4-E[dP]R[4Pal][Cha][Aib]NK[Aib]TRQR[Cha]-NH2; SMILES CC(C)C[C@H](NC(=O)N[C@@H](CCC(=O)O)C(=O)N1CCC[C@@H]1C(=O)N[C@@H](CCCNC(=N)N)C(=O)N[C@@H](Cc1ccncc1)C(=O)N[C@@H](CC1CCCCC1)C(=O)NC(C)(C)C(=O)N[C@@H](CC(N)=O)C(=O)N[C@@H](CCCCN)C(=O)NC(C)(C)C(=O)N[C@H](C(=O)N[C@@H](CCCNC(=N)N)C(=O)N[C@@H](CCC(N)=O)C(=O)N[C@@H](CCCNC(=N)N)C(=O)N[C@@H](CC1CCCCC1)C(N)=O)[C@@H](C)O)C(=O)O) [compound No. 283] | 2.2 | 2.5 | 18%
(Tetrahydro-2H-pyran-4-yl)carbamoyl-[D-Pro24, Iva25, Pya(4)26, Cha27,36, Aib28,31, Lys30]-PYY(23-36) (X7-S[dP][Iva][4Pal][Cha][Aib]NK[Aib]TRQR[Cha]-NH2; SMILES CC[C@](C)(NC(=O)[C@H]1CCCN1C(=O)[C@H](CO)NC(=O)NC1CCOCC1)C(=O)N[C@@H](Cc1ccncc1)C(=O)N[C@@H](CC1CCCCC1)C(=O)NC(C)(C)C(=O)N[C@@H](CC(N)=O)C(=O)N[C@@H](CCCCN)C(=O)NC(C)(C)C(=O)N[C@H](C(=O)N[C@@H](CCCNC(=N)N)C(=O)N[C@@H](CCC(N)=O)C(=O)N[C@@H](CCCNC(=N)N)C(=O)N[C@@H](CC1CCCCC1)C(N)=O)[C@@H](C)O) [compound No. 330] | 1.7 | 1.8 | 36%
4-Imidazolecarbonyl-[D-Pro24, Pya(4)26, Cha27,36, Aib28,31, Lys30]-PYY(23-36) (Imidazole4carbonyl-S[dP]R[4Pal][Cha][Aib]NK[Aib]TRQR[Cha]-NH2; SMILES C[C@@H](O)[C@H](NC(=O)C(C)(C)NC(=O)[C@H](CCCCN)NC(=O)[C@H](CC(N)=O)NC(=O)C(C)(C)NC(=O)[C@H](CC1CCCCC1)NC(=O)[C@H](Cc1ccncc1)NC(=O)[C@H](CCCNC(=N)N)NC(=O)[C@H]1CCCN1C(=O)[C@H](CO)NC(=O)c1cnc[nH]1)C(=O)N[C@@H](CCCNC(=N)N)C(=O)N[C@@H](CCC(N)=O)C(=O)N[C@@H](CCCNC(=N)N)C(=O)N[C@@H](CC1CCCCC1)C(N)=O) [compound No. 213] | 0.76 | 1.1 | 33%
[(1S)-1-Carboxy-2-hydroxyethyl]carbamoyl-[D-Pro24, Iva25, Pya(4)26, Cha27,36, Aib28,31, Lys30]-PYY(23-36) (X3-S[dP][Iva][4Pal][Cha][Aib]NK[Aib]TRQR[Cha]-NH2; SMILES CC[C@](C)(NC(=O)[C@H]1CCCN1C(=O)[C@H](CO)NC(=O)N[C@@H](CO)C(=O)O)C(=O)N[C@@H](Cc1ccncc1)C(=O)N[C@@H](CC1CCCCC1)C(=O)NC(C)(C)C(=O)N[C@@H](CC(N)=O)C(=O)N[C@@H](CCCCN)C(=O)NC(C)(C)C(=O)N[C@H](C(=O)N[C@@H](CCCNC(=N)N)C(=O)N[C@@H](CCC(N)=O)C(=O)N[C@@H](CCCNC(=N)N)C(=O)N[C@@H](CC1CCCCC1)C(N)=O)[C@@H](C)O) [compound No. 332] | 3.5 | 3.0 | 32%
